Test results reported in US20140322220A1 (Bayer, published 2014).
Residue numbers refer to the chain shown, from its start. Numbered stars: 1 amine (or outer) side, 2 acyl side, 3 side chain; on linkers, the order of the positions; unused ones are H or OH. Square brackets hold non-standard residues; d marks the D form. Ends that are not written are not given here. * marks the point of attachment. Biotin = O=C1N[C@H]2[C@H](CS[C@H]2CCCCC(=O)*)N1; Ttds = O=C(CCC(=O)[*:2])NCCCOCCOCCOCCCN[*:1]

T1: RPSFSLVEDTTLEPEG-Ttds-Lys(Biotin) (human)
T1 construct: Synthesized by JPT Peptide Technology
T1 peptide: RPSFSLVEDTTLEPEG[Ttds]K(Biotin)

B1: TPP-1397 (antibody, human IgG1, lambda, V domains shown)
VH: EVQLLESGGGLVQPGGSLRLSCAASGFTFSSYAMSWVRQAPGKGLEWVSAISKSGGSTFYADSVKGRFTISRDNSKNTLYLQMNSLRAEDTAVYYCARVRYIWGEGDWFDPWGQGTLVTVSS
VL: AQSVLTQPPSASGTPGQRVTISCSGSSSNIGENYVSWYQQLPGTAPKLLIYENYKRSSGVPDRFSGSKSGTSASLAISGLRSEDEADYYCAAWDDSLNSWVFGGGTKLTVLG
notes: Matured variant of M048-D01
B2: TPP-1408 (antibody, human IgG1, lambda, V domains shown)
VH: EVQLLESGGGLVQPGGSLRLSCAASGFTFSHSGMHWVRQAPGKGLEWVAVISYDGSNKYYADSVKGRFTISRDNSKNTLYLQMNSLRAEDTAVYYCAREQPVYDFEYWGQGTLVTVSS
VL: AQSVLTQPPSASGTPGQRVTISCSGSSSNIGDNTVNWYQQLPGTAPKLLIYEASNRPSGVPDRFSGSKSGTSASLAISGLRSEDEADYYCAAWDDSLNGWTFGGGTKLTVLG
notes: Matured variant of M047-D08
B3: M017-B02-hIgG1 (antibody, V domains shown)
VH: B2 VH with S30R, H31T, Q100S, V102G
VL: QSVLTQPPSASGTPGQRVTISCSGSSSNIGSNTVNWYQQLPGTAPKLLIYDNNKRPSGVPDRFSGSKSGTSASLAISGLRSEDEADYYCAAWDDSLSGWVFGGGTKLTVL
notes: Human IgG1
B4: M021-H02-hIgG1 (antibody, V domains shown)
VH: EVQLLESGGGLVQPGGSLRLSCAASGFTFSNYGIHWVRQAPGKGLEWVAVISYDGSNKYYADSVKGRFTISRDNSKNTLYLQMNSLRAEDTAMYYCARDSSSAEDYWGQGTLVTVSS
VL: QSVLTQPPSASGTPGQRVTISCSGSSSNTGSNTVNWYQQLPGTAPKLLIYRNNQRPSGVPDRFSGSKSGTSASLAISGLRSEDEADYYCETWDSNTRGVVFGGGTKLTVL
notes: Human IgG1; also called M021-1-102-hIgG1; M021-1-102
B5: M048-D01-mIgG2a (antibody)
heavy: EVQLLESGGGLVQPGGSLRLSCAASGFTFSSYAMSWVRQAPGKGLEWVSAISGSGTSTYYADSVKGRFTISRDNSKNTLYLQMNSLRAEDTAVYYCARVRYNWNHGDWFDPWGQGTLVTVSSAKTTAPSVYPLAPVCGDTTGSSVTLGCLVKGYFPEPVTLTWNSGSLSSGVHTFPAVLQSDLYTLSSSVTVTSSTWPSQSITCNVAHPASSTKVDKKIEPRGPTIKPCPPCKCPAPNLLGGPSVFIFPPKIKDVLMISLSPIVTCVVVDVSEDDPDVQISWFVNNVEVHTAQTQTHREDYNSTLRVVSALPIQHQDWMSGKEFKCKVNNKDLPAPIERTISKPKGSVRAPQVYVLPPPEEEMTKKQVTLTCMVTDFMPEDIYVEWTNNGKTELNYKNTEPVLDSDGSYFMYSKLRVEKKNWVERNSYSCSVVHEGLHNHHTTKSFSRTPGK
VL: QSVLTQPPSASGTPGQRVTISCSGSSSNIGNNYVSWYQQLPGTAPKLLIYENYNRPAGVPDRFSGSKSGTSASLAISGLRSEDEADYYCSSWDDSLNYWVFGGGTKLTVL
notes: Murine IgG2a format of M048-D01
B6: M054-A05-hIgG1 (antibody, V domains shown)
VH: EVQLLESGGGLVQPGGSLRLSCAASGFTFSNYGMYWVRQAPGKGLEWVAVISYDGTNKYYVDSVKGRFTISRDNSKNTLYLQMNSLRAEDTAVYYCAKDLPKWGGFDSWGQGTLVTVSS
VL: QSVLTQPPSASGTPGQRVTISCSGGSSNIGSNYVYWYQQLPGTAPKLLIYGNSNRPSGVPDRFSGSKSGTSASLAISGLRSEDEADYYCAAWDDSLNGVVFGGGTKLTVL
notes: Human IgG1

Key:
[1] = biological target: T1, RPSFSLVEDTTLEPEG-Ttds-Lys(Biotin); assay: peptide binding ELISA, antibody captured by anti-human IgG Fc, biotinylated peptide titrated; against TPP-1403
From the text: (§1) Two different types of ELISA were used to determine the binding improvement of mutated variants: a) Peptide Binding ELISA: a synthetic peptide comprising the amino acid sequence of the epitope linked C-terminally to a biotinylated lysine […]-Ttds-Lys(Biotin) (peptide sequence derived from SEQ ID NO:63, synthesized by JPT Peptide Technology GmbH, Berlin, Germany), and b) Recombinant Protein Binding ELISA: recombinant human FGFR2 (DNA sequence of human FGFR2 (NP 000132.3) Met 1-Glu 377, fused with a polyhistidine tag at the C-terminus; #10824-1-1081-1, Sin θ Biological Inc., Beijing, China).
(§2) Briefly, in both ELISA formats MTP plates (384 well Maxisorp, Nunc) were coated with 20 μl, anti-human IgG Fc specific (#12136; sigma) at 2.2 μg/ml for 2.5 h at 37° C. in coating buffer (#121125 Candor Bioscience GmbH). […] Anti-FGFR2 variants were immobilized in concentrations of 0.035 μg/ml (peptide based assay) or 0.2 μg/ml (recombinant human FGFR2 protein based assay) in 10% Smart Block in PBST depending on the format and variants to be analyzed by incubation of 20 μl for one hour at 20-22° C. […] After 3 washing steps 20 μl of 10 μM amplex red substrate (# A12222, Invitrogen) in 50 mM Sodium hydrogen phosphate, pH 7.6, were added and the fluorescence signal was detected using a common fluorescence reader, e.g. Tecan M1000. […]

[2] = biological target: T2, recombinant human FGFR2 (Met 1-Glu 377) with C-terminal polyhistidine tag (human, UniProt P21802 22-377); assay: protein binding ELISA; against TPP-1403
T2 construct: The range is that of the expressed DNA and begins at Met 1; also called His-tagged FGFR2; recombinant human FGFR2-IIIc molecule
From the text: as §1
(§3) Briefly, in both ELISA formats MTP plates (384 well Maxisorp, Nunc) were coated with 20 μl, anti-human IgG Fc specific (#12136; sigma) at 2.2 μg/ml for 2.5 h at 37° C. in coating buffer (#121125 Candor Bioscience GmbH). […] Anti-FGFR2 variants were immobilized in concentrations of 0.035 μg/ml (peptide based assay) or 0.2 μg/ml (recombinant human FGFR2 protein based assay) in 10% Smart Block in PBST depending on the format and variants to be analyzed by incubation of 20 μl for one hour at 20-22° C. After one washing step using 50 μl PBST, 20 μl quadruplets of the antigen dilution series in 10% SmartBlock in PBST with a maximum concentration of 100 nM were added and incubated for 1 h at 20-22° C. and the washing step was repeated 3 times. For the detection of the biotinylated epitope peptide 20 μl of streptavidine/POD conjugate (# S5512, Sigma) in a 1:1000 dilution in 10% SmartBlock in PBST were applied for one hour at 20-22° C. For the detection of the recombinant FGFR2 protein 20 μl of anti-His/HRP conjugate (#71840, novagen) in a 1:10000 dilution in 10% SmartBlock in PBST were applied for one hour at 20-22° C. After 3 washing steps 20 μl of 10 μM amplex red substrate (# A12222, Invitrogen) in 50 mM Sodium hydrogen phosphate, pH 7.6, were added and the fluorescence signal was detected using a common fluorescence reader, e.g. Tecan M1000. EC50 values were evaluated by fitting the data (Sigmoida) dose-response, variable slope, bottom set to background; GraphPad Prism software).

[3] = biological target: T2, recombinant human FGFR2 (Met 1-Glu 377) …; assay: protein binding ELISA, antibody captured by anti-human IgG Fc, FGFR2-His titrated
From the text: as §1, §3

[4] = biological target: T1, RPSFSLVEDTTLEPEG-Ttds-Lys(Biotin); assay: peptide binding ELISA, antibody captured by anti-human IgG Fc, biotinylated peptide titrated
From the text: as §1, §3

[5] = biological target: T2, recombinant human FGFR2 (Met 1-Glu 377) …; assay: protein binding ELISA; against TPP-1415
From the text: as §1, §3

[6] = biological target: T1, RPSFSLVEDTTLEPEG-Ttds-Lys(Biotin); assay: peptide binding ELISA; against TPP-1415
From the text: as §1, §2

[7] = biological target: T3, mutated human FGFR2 on AN3-CA cells (human, UniProt P21802 22-821); assay: FACS, 5 ug/ml, AN3CA cells
T3 construct: whole, on cells; also called AN3-CA (DSMZ-ACC 267)
Protocol: (§4) To determine the binding characteristics of the anti-FGFR2 antibodies on mouse, rat and human cancer cell lines, binding was tested by flow cytometry to a panel of cell lines. Adherent cells were washed twice with PBS (without Ca and Mg) and detached by enzyme-free PBS based cell dissociation buffer (Invitrogen). Cells were suspended at approximately 10⁵ cells/well in FACS buffer (PBS without Ca/Mg, Biochrom containing 3% FCS, Biochrom). Cells were centrifuged (250 g, 5 min, 4° C.) and supernatant discarded. Cell were resuspended in dilutions of the antibodies of interest (5 μg/ml in 80 μl if not indicated otherwise) in FACS buffer, and incubated on ice for 1 h. […] After incubation for 1 h on ice cells were again washed with cold FACS buffer, resuspended in 100 μl FACS buffer and analyzed by flow cytometry using a FACS-Array (BD Biosciences). Results are calculated as Geo Mean of the detection by the antibody of interest subtracted by background fluorescence as measured by detection with the secondary antibody alone.

[8] = biological target: T4, mutated human FGFR2 on MFE-296 cells (human, UniProt P21802 22-821); assay: FACS, 5 ug/ml, MFE296 cells
T4 construct: whole, on cells
Protocol: as §4

[9] = biological target: T5, rat FGFR2 on RUCA cells (rat, UniProt F1LNW0 41-840); assay: FACS, 5 ug/ml, RUCA cells
T5 construct: whole, on cells
Protocol: as §4

[10] = biological target: T1, RPSFSLVEDTTLEPEG-Ttds-Lys(Biotin); assay: peptide ELISA, IgG titration, anti-mouse IgG (Fc specific) POD detection

T2 sequence (P21802 22-377 limits assumed): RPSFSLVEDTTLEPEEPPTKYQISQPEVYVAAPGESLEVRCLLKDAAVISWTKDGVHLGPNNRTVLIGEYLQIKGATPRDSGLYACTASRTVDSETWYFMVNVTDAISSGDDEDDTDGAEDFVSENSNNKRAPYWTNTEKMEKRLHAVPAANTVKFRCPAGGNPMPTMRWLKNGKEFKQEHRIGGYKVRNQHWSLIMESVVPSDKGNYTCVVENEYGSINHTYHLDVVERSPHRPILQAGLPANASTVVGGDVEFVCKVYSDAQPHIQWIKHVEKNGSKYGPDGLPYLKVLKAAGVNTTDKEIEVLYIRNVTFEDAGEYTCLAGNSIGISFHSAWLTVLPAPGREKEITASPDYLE
T4 sequence (P21802 other isoform, or with tags, fused parts or gaps limits assumed, change not shown): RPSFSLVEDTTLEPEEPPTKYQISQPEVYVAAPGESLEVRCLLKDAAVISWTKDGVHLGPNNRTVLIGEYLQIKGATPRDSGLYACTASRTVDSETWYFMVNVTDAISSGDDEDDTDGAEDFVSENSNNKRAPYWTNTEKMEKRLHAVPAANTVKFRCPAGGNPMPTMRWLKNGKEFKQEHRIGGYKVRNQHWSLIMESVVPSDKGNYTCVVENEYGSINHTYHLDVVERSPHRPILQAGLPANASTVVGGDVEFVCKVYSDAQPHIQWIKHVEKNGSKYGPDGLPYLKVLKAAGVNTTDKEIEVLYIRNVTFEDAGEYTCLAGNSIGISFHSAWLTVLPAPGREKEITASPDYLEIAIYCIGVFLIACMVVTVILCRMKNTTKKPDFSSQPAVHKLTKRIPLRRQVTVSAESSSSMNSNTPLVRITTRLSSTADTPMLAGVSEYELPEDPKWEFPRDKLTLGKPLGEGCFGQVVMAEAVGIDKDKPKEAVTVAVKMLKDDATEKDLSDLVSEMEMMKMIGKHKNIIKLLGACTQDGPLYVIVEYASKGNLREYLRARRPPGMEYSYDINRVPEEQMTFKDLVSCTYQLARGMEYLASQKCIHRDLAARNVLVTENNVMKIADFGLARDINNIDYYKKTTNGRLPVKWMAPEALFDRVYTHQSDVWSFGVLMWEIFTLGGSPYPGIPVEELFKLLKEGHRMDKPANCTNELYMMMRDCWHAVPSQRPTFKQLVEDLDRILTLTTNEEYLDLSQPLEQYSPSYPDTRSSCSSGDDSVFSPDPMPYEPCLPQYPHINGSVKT
T3 sequence (P21802 other isoform, or with tags, fused parts or gaps limits assumed, change not shown): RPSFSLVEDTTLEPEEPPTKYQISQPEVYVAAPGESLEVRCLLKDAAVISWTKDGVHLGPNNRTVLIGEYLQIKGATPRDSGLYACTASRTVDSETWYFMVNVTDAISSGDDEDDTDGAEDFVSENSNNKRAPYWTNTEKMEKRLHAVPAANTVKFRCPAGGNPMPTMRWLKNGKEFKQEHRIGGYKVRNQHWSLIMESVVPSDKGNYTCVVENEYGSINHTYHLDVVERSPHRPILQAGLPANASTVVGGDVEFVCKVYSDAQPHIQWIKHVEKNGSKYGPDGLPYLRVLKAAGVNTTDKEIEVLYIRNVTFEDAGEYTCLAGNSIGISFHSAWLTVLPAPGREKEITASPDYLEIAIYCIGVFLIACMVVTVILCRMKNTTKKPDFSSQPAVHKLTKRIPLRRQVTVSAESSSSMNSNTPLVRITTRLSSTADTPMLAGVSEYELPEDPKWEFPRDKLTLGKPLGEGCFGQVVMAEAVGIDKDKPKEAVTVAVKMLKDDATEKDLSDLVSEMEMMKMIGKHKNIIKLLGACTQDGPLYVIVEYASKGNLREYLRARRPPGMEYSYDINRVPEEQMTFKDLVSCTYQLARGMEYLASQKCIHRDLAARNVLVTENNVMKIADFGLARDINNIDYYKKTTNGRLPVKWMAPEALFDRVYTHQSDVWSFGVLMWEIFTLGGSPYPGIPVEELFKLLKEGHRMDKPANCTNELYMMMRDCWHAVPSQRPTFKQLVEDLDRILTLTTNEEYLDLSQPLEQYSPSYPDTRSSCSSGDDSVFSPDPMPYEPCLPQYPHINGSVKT

Binder	EC50 [3]	EC50 [4]	Geo Mean minus Geo Mean of secondary antibody alone (FACS) [7]	Geo Mean minus Geo Mean of secondary antibody alone (FACS) [8]	Geo Mean minus Geo Mean of secondary antibody alone (FACS) [9]	other results
B1	200 pM	4 pM				fold EC50 reduction [1]: > 2300 fold; fold EC50 reduction [2]: 40 fold
B2	290 pM	2500 pM				fold EC50 reduction [5]: 27 fold; fold EC50 reduction [6]: > 4 fold; fold signal [6]: 10 fold
B3			100 to 1000 geomean	1000 to 10000 geomean	100 to 1000 geomean	
B4				100 to 1000 geomean	100 to 1000 geomean	
B5						EC50 [10]: ≤ 1000 pM
B6			100 to 1000 geomean	1000 to 10000 geomean		
